The values that follow come from US20230049152A1 (Genentech, published 2023).

Some results are limits rather than exact numbers.

The target of one assay is T1, human CCR3 (human, UniProt P51677 1-355).
T1 construct: whole, on cells; transiently expressed on HEK293 cells
T1 sequence (looked up): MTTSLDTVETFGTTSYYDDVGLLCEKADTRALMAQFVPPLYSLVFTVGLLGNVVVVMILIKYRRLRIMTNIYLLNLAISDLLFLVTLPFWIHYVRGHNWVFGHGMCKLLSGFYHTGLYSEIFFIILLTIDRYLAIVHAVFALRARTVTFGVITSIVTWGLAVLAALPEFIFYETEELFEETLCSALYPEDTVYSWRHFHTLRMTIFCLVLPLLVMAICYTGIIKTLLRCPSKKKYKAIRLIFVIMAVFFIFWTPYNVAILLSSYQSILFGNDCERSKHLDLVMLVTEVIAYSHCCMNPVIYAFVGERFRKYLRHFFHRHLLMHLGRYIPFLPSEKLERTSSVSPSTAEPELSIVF
Kind of assay: flow cytometry, HEK293 transiently transfected with N-term FLAG-tagged human CCR3, antibody at 5 ug/ml. From the text:
(§1) FIGS. 4A-4F depicts the binding data of hu.Ab3.H1L1 (FIG. 4A), hu.Ab4.H1L1 (FIG. 4B), and hu.Ab5.H1L1 (FIG. 4C), as well as the commercial anti-CCR8 mAbs murine anti-human CCR8 mAb 433H (BD Biosciences) (FIG. 4D), and murine anti-human CCR8 mAb L263G8 (Biolegend) (FIG. 4E), and the humanized anti-human Yoshida anti-CCR8 mAb (FIG. 4F), to HEK293 cells that were transiently transfected with N-term FLAG-tagged plasmids encoding for human GPCRs (CCR2, CCR3, CCR4, CCR5, CCR8, CXCR4, ACKR2, and ACKR4), hCCR8 constructs, or with a mock construct using transIT X2 (reagent:DNA=3:1).
(§2) To confirm the selectivity to CCR8, the binding of hu.Ab3.H1L1, hu.Ab4.H1L1, and hu.Ab5.H1L1, as well as the Yoshida humanized anti-human CCR8, murine anti-human CCR8 mAb L263G8 (Biolegend, Commercial Ab) and murine anti-human CCR8 mAb 433H (BD Biosciences, Commercial Ab), were characterized by flow cytometry on HEK293 cells that were transiently transfected with plasmids encoding for FLAG-tagged other related human GPCRs (CCR2-5, CXCR4, ACKR2, and ACKR4). Cell surface expression of each GPCR was confirmed by staining with an anti-FLAG antibody control. […]
(In general: A flow cytometer gives signals particle by particle.)

The target of the next assay is T2, cyno CCR8 (cynomolgus monkey, UniProt O97665 1-356 (rhesus entry)).
T2 construct: also called cynomolgus monkey CCR8
Kind of assay: flow cytometry on human and cyno CCR8 CHO cells.

Assay [1] has as its target T3, human CCR8 (human, UniProt P51685 1-355).
T3 construct: the assay field says which; also called hCCR8; huCCR8
Kind of assay: flow cytometry, 2 ug/mL mAb, Treg cells of human colorectal dissociated tumor cells. The method, then: The mAbs were evaluated for binding to regulatory T cells (Treg cells or Tregs) by Fluorescence-Activated Cell Sorting (FACS) flow cytometry. Human colorectal dissociated tumor cells (DTC) (Discovery Life Sciences) were thawed according to vendor's protocol. Cells were surface stained with eFluor 780-conjugated Fixable Viability Dye (ThermoFisher Scientific) and 2 ug/mL mAb specific for CCR8, OX40 (positive control), Herceptin (negative control), or anti-hIgG (negative control) for 20 min at 4° C. followed by secondary detection with AF647-conjugated AffiniPure F(ab′)2 Fragment Goat anti-Human IgG, Fcg fragment-specific (Jackson ImmunoResearch) for 10 min at 4° C. Cells were then intracellularly stained using the eBioscience Foxp3/Transcription Factor Staining Buffer Set (ThermoFisher Scientific) according to the manufacturer's protocol. […] Shown in FIG. 1 are mean fluorescent intensity (MFI) values for CD8 T cells (defined as CD45+CD14−CD3+CD8+CD4−) (circles, ◯), conventional CD4 T cells (defined as CD45+CD14−CD3+CD8−CD4+FOXP3−) (squares, □), and Treg cells (defined as CD45+CD14−CD3+CD8−CD4+FOXP3+) (triangles, ▴). Three of the five CCR8 mAb clones specifically stained Treg cells and not conventional CD4 or CD8 T cells and were ranked according to CCR8 MFI, greater than 500 MFI: hu.Ab4.H1L1>hu.Ab5.H1L1>hu.Ab3.H1L1. Upon confirmation that these three CCR8 mAb clones, namely, hu.Ab3.H1L1, hu.Ab4.H1L1, and hu.Ab5.H1L1, also retained human-cyno cross-reactivity (differences less than 5-fold on human and cyno CCR8 CHO cells), these antibodies carried forward for further exploration.

The target in another assay is T4, human CCR5 (human, UniProt P51681 1-352).
T4 construct: whole, on cells; transiently expressed on HEK293 cells
Briefly: flow cytometry, HEK293 transiently transfected with N-term FLAG-tagged human CCR5, antibody at 5 ug/ml.
Description: as §1, §2

The target in the next assay is T5, human CXCR4 (human, UniProt P61073 1-352).
T5 construct: whole, on cells; transiently expressed on HEK293 cells
Briefly: flow cytometry, HEK293 transiently transfected with N-term FLAG-tagged human CXCR4, antibody at 5 ug/ml.
Description: as §1, §2

The target of the next assay is T6, human ACKR4 (human, UniProt Q9NPB9 1-350).
T6 construct: whole, on cells; transiently expressed on HEK293 cells
T6 sequence (looked up): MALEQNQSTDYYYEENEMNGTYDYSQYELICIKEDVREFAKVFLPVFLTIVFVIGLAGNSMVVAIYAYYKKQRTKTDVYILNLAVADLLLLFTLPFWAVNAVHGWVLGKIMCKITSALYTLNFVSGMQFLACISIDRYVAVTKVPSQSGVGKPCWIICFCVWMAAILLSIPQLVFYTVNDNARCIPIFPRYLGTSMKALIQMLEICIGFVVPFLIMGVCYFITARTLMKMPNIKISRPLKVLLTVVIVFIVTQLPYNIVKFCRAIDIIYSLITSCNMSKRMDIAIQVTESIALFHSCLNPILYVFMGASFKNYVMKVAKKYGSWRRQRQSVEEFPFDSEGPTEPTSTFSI
Briefly: flow cytometry, HEK293 transiently transfected with N-term FLAG-tagged human ACKR4, antibody at 5 ug/ml.
Description: as §1, §2

The next assay addresses T7, human CCR2 (human, UniProt P41597 1-374).
T7 construct: whole, on cells; transiently expressed on HEK293 cells
Briefly: flow cytometry, HEK293 with N-term FLAG-tagged human CCR2.
Description: as §1
To confirm the selectivity to CCR8, the binding of hu.Ab3.H1L1, hu.Ab4.H1L1, and hu.Ab5.H1L1, as well as the Yoshida humanized anti-human CCR8, murine anti-human CCR8 mAb L263G8 (Biolegend, Commercial Ab) and murine anti-human CCR8 mAb 433H (BD Biosciences, Commercial Ab), were characterized by flow cytometry on HEK293 cells that were transiently transfected with plasmids encoding for FLAG-tagged other related human GPCRs (CCR2-5, CXCR4, ACKR2, and ACKR4). Cell surface expression of each GPCR was confirmed by staining with an anti-FLAG antibody control. In particular, HEK293 cells were transfected with N-term FLAG-tagged human CCR2, CCR3, CCR4, CCR5, CXCR4, ACKR2, ACKR4, hCCR8 constructs, or with a Mock construct using transIT X2 (reagent:DNA=3:1) for 24 hours, and surface stained with various anti-hCCR8 monoclonal antibodies at 5 ug/ml, or rabbit anti-Flag pAb (Sigma) followed by AF647-anti-hIgG or AF647-anti-RbIgG respectively. Antibodies hu.Ab4.H1L1, and hu.Ab5.H1L1, only stained the hCCR8-containing cells, confirming their specificity to hCCR8. […] Thus, the CCR8 selective hu.Ab4.H1L1 and hu.Ab5.H1L1 antibodies with the best ADCC activities were carried forward.

The target in assay [2] is T3, human CCR8. Briefly: cell-based or functional assay.

T7 sequence (P41597 whole entry): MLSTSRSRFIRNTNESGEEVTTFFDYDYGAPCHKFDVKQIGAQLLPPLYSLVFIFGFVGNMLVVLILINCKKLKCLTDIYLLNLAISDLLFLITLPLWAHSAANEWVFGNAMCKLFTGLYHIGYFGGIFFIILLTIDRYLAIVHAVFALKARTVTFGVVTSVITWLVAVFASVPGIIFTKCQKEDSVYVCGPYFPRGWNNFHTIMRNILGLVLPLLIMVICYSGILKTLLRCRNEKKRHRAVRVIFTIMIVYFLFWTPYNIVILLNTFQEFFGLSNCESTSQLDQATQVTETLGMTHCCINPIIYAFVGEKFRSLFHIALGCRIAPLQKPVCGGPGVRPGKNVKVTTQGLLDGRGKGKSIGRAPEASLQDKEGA
T4 sequence (P51681 whole entry): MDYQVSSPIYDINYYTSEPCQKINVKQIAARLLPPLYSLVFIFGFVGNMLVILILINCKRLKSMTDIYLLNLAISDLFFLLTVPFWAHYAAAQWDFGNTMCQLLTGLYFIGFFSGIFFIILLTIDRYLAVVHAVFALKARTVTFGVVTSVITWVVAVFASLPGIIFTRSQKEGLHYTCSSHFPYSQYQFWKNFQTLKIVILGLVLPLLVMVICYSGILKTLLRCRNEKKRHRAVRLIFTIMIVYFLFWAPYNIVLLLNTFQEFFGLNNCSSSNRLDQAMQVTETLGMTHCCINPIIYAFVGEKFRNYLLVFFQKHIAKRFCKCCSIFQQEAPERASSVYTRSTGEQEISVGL
T5 sequence (P61073 whole entry): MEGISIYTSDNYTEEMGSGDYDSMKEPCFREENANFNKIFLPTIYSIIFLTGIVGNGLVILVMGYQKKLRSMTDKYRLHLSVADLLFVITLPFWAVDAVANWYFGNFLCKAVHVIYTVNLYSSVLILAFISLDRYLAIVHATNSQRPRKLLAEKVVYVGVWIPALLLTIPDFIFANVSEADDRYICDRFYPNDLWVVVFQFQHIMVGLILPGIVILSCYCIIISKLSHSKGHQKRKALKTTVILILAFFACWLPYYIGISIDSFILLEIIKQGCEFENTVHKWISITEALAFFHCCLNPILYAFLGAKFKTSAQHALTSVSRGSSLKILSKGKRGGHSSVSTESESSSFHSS
T2 sequence (O97665 other isoform, or with tags, fused parts or gaps): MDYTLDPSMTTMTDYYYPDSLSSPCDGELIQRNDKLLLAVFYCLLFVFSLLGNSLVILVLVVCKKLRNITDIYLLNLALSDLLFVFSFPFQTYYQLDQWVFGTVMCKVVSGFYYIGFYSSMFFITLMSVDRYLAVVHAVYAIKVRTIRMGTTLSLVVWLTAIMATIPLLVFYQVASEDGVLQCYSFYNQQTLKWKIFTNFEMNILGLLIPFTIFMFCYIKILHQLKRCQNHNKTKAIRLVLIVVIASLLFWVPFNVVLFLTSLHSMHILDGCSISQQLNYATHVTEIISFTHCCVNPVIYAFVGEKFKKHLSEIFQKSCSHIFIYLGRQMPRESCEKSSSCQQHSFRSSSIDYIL

B1: hu.Ab3.H1L1 (antibody, human IgG1, kappa, V domains shown)
VH: EQQLVESGGGLVQPGGSLRLSCAVSGFSLSSYAMSWVRQAPGKGLEWIGVISASGRIIYATWAKGRFTISKDSAKTSVYLQMNSLRDEDTAVYFCARGVPSYSLVMSDWGPGTTVTVSS
VL: EPVMTQSPATLSVSPGERATLSCQASQSISNALAWYQQKPGQPPRLLIYEVSKVASGVPARFSGSGSGTEFTLTISSLQSEDFAVYYCQSAYYGNSYVWGAFGQGTKVEIKR
notes: humanized, human IgG1
Consider B1, for which the binding result is “binds” with human CCR3; “binds” with cyno CCR8; “binds” with human CCR5; “binds” in the assay with human CXCR4; “binds” in the assay with human ACKR4; “no binding (tested: 5 ug/ml)” with human CCR2. For the same molecule, the MFI with human CCR8 [1] is greater than 500 MFI. Besides, the “ADCC EC50, NK-92_F158 effector cells, calcein release” value with human CCR8 [2] is 20 pM.
